B1: His10/Avi Human IL33-01 (ligand)
chain: MHHHHHHHHHHAAGLNDIFEAQKIEWHEAAIEGRSITGISPITEYLASLSTYNDQSITFALEDESYEIYVEDLKKDEKKDKVLLSYYESQHPSNESGDGVDGKMLMVTLSPTKDFWLHANNKEHSVELHKCEKPLPDQAFFVLHNMHSNCVSFECKTDPGVFIGVKDNHLALIKVDSSENLCTENILFKLSET
B2: His10/Avi Human IL33-11 (ligand)
chain: B1 chain with C131S, C182S
B3: 33_640027 scFv (scFv, V domains shown)
VH: EVQLLESGGDLVQPGGSLRLSCAASGFTFSSYAMSWVRQAPGKGLEWVSAIGGSGGSTYYADSVKGRFTISRDNSKNTLYLQMNSLRAEDTAVYYCARDLWMQLWGGGLRYPFGYWGQGTMVTVSS
VL: LPVLTQPPSVSVSPGQKASITCSGERIGDKYAAWYQQKPGQSPILVIYRDTKRPSGIPERFSGSNSGNTATLTISGTQDMDEADYYCQVWDSSTGVFGGGTKVTVL
notes: Single chain Fv
B4: 33v20064 scFv (scFv, V domains shown)
VH: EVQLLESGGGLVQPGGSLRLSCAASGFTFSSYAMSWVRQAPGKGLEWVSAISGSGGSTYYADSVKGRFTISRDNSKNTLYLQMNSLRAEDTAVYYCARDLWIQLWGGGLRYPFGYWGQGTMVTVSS
VL: B3 VL with I27M, R49Q
notes: Single chain Fv
B5: 33_640050 scFv (scFv, V domains shown)
VH: B3 VH with D10G, G52S, A97P, D99H, L100K, W101F
VL: B3 VL with L1S, P2Y, K17T, I27M, I44V, R49Q, D79A
notes: Single chain Fv
B6: Recombinant human IL-33 (construct not named in the example) (ligand, UniProt O95760 112-270, looked up)
chain: SITGISPITEYLASLSTYNDQSITFALEDESYEIYVEDLKKDEKKDKVLLSYYESQHPSNESGDGVDGKMLMVTLSPTKDFWLHANNKEHSVELHKCEKPLPDQAFFVLHNMHSNCVSFECKTDPGVFIGVKDNHLALIKVDSSENLCTENILFKLSET
notes: also called Recombinant, enzymatically biotinylated human IL-33 (produced in-house); IL-33 (200 nM)

Positions count from the first letter of the chain named.

For experiment [1], the target named is T1, ST2 on human umbilical vein endothelial cells (human, UniProt Q01638 19-556).
T1 sequence (looked up): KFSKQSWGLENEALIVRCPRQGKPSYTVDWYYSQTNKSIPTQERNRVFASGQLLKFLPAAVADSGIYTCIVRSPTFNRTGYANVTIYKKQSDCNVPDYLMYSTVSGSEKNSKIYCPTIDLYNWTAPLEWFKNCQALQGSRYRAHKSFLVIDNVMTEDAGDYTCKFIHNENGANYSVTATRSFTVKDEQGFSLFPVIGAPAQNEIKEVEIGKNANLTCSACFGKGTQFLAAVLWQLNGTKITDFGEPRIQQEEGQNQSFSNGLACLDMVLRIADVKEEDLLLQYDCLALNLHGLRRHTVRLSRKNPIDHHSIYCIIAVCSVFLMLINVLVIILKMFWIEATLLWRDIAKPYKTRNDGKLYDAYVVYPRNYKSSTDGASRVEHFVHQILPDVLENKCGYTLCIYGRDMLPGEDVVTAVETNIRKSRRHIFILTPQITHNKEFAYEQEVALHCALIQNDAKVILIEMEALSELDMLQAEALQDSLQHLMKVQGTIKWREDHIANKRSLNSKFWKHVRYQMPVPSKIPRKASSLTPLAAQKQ
Description: cell-based or functional assay.

The target in experiment [2] is B2. Description: HTRF epitope competition, scFv titrated; competitor DyLight labelled 33v20064 IgG. How it is done: (§1) This was followed by the addition of 2.5 microlitres of a solution containing 0.8 nM biotinylated human IL-33-01 combined with 0.75 nM streptavidin cryptate detection (Cisbio International, 610SAKLB) for the human assay or a solution containing 4 nM biotinylated cynomolgus IL-33 combined with 1.5 nM streptavidin cryptate detection (Cisbio International, 610SAKLB) for the cynomolgus assay. All dilutions were performed in assay buffer containing 0.8 M potassium fluoride (VWR, 26820.236) and 0.1% bovine serum albumin (BSA, PAA, K05-013) in Dulbeccos PBS (Invitrogen, 14190185). Assay plates were incubated for 1 hour at room temperature and time resolved fluorescence was read at 620 nm and 665 nm emission wavelengths using an EnVision plate reader (Perkin Elmer). Data were analysed by calculating the 665/620 nm ratio followed by the % Delta F values for each sample. The 665/620 nm ratio was used to correct for sample interference using Equation 1. The % Delta F for each sample was then calculated using Equation 2. The negative control (non-specific binding) was defined by replacing biotinylated IL-33 combined with streptavidin cryptate detection with streptavidin cryptate detection only. The % Delta F values were subsequently used to calculate % specific binding as described in Equation 3.
(§2) Unique scFv were expressed again in bacteria and purified by affinity chromatography (as described in WO01/66754). Purified anti-IL-33 antibody samples were tested for potency of inhibition by competing a dilution series of the purified preparation against DyLight labelled 33v20064 IgG or DyLight labelled 33_640027 IgG for binding to biotinylated His Avi IL33-01, biotinylated His Avi IL33-11 or biotinylated His Avi cynomolgus IL-33. Methods are as described in the previous section.

Experiment [3] deals with T2, His10/Avi Cyno IL-33 (cynomolgus monkey).
T2 construct: also called Cynomolgus 10His Avitag IL-33; biotinylated His Avi cynomolgus IL-33
T2 chain: B1 chain with E77K, N94S, H118Q, M146R, H147S, S148F, S177Y, C182G, T183S, T193I
Described as above. Here is the method:
as §1, §2

The target in experiment [4] is B1. Described as above. How it is done: as §1, §2
For experiment [5], the target named is B2. Put plainly: HTRF epitope competition, scFv titrated; competitor DyLight labelled 33_640027 IgG.
The target in experiment [6] is T2, His10/Avi Cyno IL-33. Described as above.
Experiment [7] addresses B1. Described as above.
A further experiment addresses T3, Human ST2 ECD-Flag-his10 (human, UniProt Q01638 19-328).
T3 construct: also called Human ST2 Flag His; FLAG® His-tagged human ST2
T3 sequence: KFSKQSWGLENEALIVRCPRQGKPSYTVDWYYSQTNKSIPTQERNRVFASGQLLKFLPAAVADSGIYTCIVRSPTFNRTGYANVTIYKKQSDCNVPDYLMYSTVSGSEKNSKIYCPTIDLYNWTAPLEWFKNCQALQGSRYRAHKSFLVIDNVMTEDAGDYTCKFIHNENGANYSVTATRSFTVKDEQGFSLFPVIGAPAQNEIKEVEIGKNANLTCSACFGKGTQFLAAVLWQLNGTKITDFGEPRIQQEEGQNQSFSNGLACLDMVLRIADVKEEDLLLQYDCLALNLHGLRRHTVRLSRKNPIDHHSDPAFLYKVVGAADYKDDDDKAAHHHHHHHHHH
Put plainly: SPR Biacore T100, 25 C, biotinylated human IL-33 on streptavidin C1 chip, ST2-Flag-His10 as analyte. Here is the method: Fab fragments were generated by papain cleavage from full length IgG1 and purified by SEC. […] Streptavidin was covalently immobilised to a C1 chip surface using standard amine coupling techniques at a concentration of […] in 10 mM Sodium acetate pH 4.5. […] Recombinant, enzymatically biotinylated human IL-33 (produced in-house) was titrated onto the streptavidin chip surface at […] in HBS-EP+ buffer to enable ˜30 RUs of Fab binding at saturation (Rmax). This low level of analyte binding ensured minimal mass transport effects.
The IL-33 Fab was serially diluted from 5 nM to 78 pM in HBS-EP+ buffer and flowed over the chip at 50 μl/min, with 3 minutes association and up to 30 minutes dissociation. Multiple buffer only injections were made under the same conditions to allow for double reference subtraction of the final sensorgram sets, which were analysed using the BiaEval software (version 2.0.1). The chip surface was fully regenerated with pulses of 3M MgCl₂.
The affinity of ST2-Flag-His10 (SEQ. ID no. 650) expressed in HEK-EBNA cells for human IL-33 was determined by BIACORE™ using the same methods described above.
(In general: SPR reads the build-up and loss of mass on a sensor chip optically.)

The values that follow come from patent US20200353078A1 (AstraZeneca / MedImmune, published 2020).

For the molecule B1, the “IC50 (nM) Untreated, HUVEC NFkB translocation assay” value in experiment [1] was found to be 0.13 nM.

In the case of B2, the “IC50 (nM) Untreated, HUVEC NFkB translocation assay” value in experiment [1] came to 0.49 nM.

Turning to B3, the IC50 with His10/Avi Human IL33-11 [2] is 0.6 nM; with His10/Avi Cyno IL-33 [3], 8.2 nM; with His10/Avi Human IL33-01 [4], 0.4 nM; in the experiment with His10/Avi Human IL33-11 [5], 2.9 nM; with His10/Avi Cyno IL-33 [6], 38 nM; with His10/Avi Human IL33-01 [7], 3.8 nM.

As for B4, the IC50 with His10/Avi Human IL33-11 [2] is 26 nM; with His10/Avi Cyno IL-33 [3], 103 nM; in the experiment with His10/Avi Human IL33-01 [4], 12 nM; in the experiment with His10/Avi Human IL33-11 [5], 1470 nM; in the experiment with His10/Avi Cyno IL-33 [6], 3430 nM; in the experiment with His10/Avi Human IL33-01 [7], 1500 nM.

As for B5, the IC50 turned out to be 0.4 nM with His10/Avi Human IL33-11 [2]; 1.4 nM with His10/Avi Cyno IL-33 [3]; 0.2 nM in the experiment with His10/Avi Human IL33-01 [4]; 2.4 nM with His10/Avi Human IL33-11 [5]; 4.1 nM with His10/Avi Cyno IL-33 [6]; 2.5 nM with His10/Avi Human IL33-01 [7].

In the experiment with Human ST2 ECD-Flag-his10, B6 registered a Kd of 0.0029 nM, a koff of 4.35e-05 s⁻¹ and a kon of 1.52e+07 M⁻¹ s⁻¹.

A word on the IC50: it is the midpoint of a concentration-inhibition curve. A high value points to weaker potency. As usually defined, the Kd is the constant that tells how readily two partners part at equilibrium. Read a high Kd as weaker binding. A word on the koff: it is the first-order rate constant of dissociation. Read a high koff as a short-lived complex. The kon is a measure of how fast the partners come together.
